In PMC3919625 one finds stoichiometry N (FcRn per 2G12 monomer) data, which are given here for 1 molecule.

In the test the target is 2G12 IgG monomer (human). In words: SEC. Background: SEC sorts molecules by how far they enter the pores of the column.

B1: soluble neonatal Fc receptor (FcRn) (receptor)
chain 1: AEPRLPLMYHLAAVSDLSTGLPSFWATGWLGAQQYLTYNNLRQEADPCGAWIWENQVSWYWEKETTDLKSKEQLFLEAIRTLENQINGTFTLQGLLGCELAPDNSSLPTAVFALNGEEFMRFNPRTGNWSGEWPETDIVGNLWMKQPEAARKESEFLLTSCPERLLGHLERGRQNLEWKEPPSMRLKARPGNSGSSVLTCAAFSFYPPELKFRFLRNGLASGSGNCSTGPNGDGSFHAWSLLEVKRGDEHHYQCQVEHEGLAQPLTVDLDSPARSS
chain 2: IQKTPQIQVYSRHPPENGKPNFLNCYVSQFHPPQIEIELLKNGKKIPNIEMSDLSFSKDWSFYILAHTEFTPTETDVYACRVKHVTLKEPKTVTWDRDM
B1 yielded a stoichiometry N (FcRn per 2G12 monomer) of 2.
